Results published in article PMC7356578.

Columns and labels:
[1] = biological target: KLK1-70Lm (KLK1 with D75, D76 and E77 replaced by arginines) (human); assay: kinetics of protease inhibition (discontinuous assay); 1 µM rKAL preincubated 5 min with LMWH (0-2.5 mg/mL) at room temperature, then 10 nM KLK1-70Lm; kobs plotted against LMWH
[2] = biological target: KLK1-99Lm (KLK1 with nine residues of its 99 loop deleted) (human) (UniProt P06870); assay: kinetics of protease inhibition (discontinuous assay); pseudo-first-order; 10 nM protease with 100-500 nM kallistatin variant, PBS, 0.1% PEG 8000, 22 ± 1 °C; apparent second-order rate constant kapp from kobs; k2 = kapp × SI
[3] = biological target: KLK1-70Lm (KLK1 with D75, D76 and E77 replaced by arginines) (human); assay: as above

B1: Recombinant human kallistatin (rKAL), wild type (natural protein)
chain: GSPSLKIAPANADFAFRFYYLIASETPGKNIFFSPLSISAAYAMLSLGACSHSRSQILEGLGFNLTELSESDVHRGFQHLLHTLNLPGHGLETRVGSALFLSHNLKFLAKFLNDTMAVYEAKLFHTNFYDTVGTIQLINDHVKKETRGKIVDLVSELKKDVLMVLVNYIYFKALWEKPFISSRTTPKDFYVDENTTVRVPMMLQDQEHHWYLHDRYLPCSVLRMDYKGDATVFFILPNQGKMREIEEVLTPEMLMRWNNLLRKRNFYKKLELHLPKFSISGSYVLDQILPRLGFTDLFSKWADLSGITKQQKLEASKSFHKATLDVDEAGTEAAAATSFAIKFFSAQTNRHILRFNRPFLVVIFSTSTQSVLFLGKVVDPTKP
**Q.** What does the source list for B1?
**A.** fold acceleration of the inhibition rate with LMWH against no heparin [1]: 5 fold; second-order association rate constant [2]: 200 M⁻¹ s⁻¹; k2 (second-order rate constant) [3]: 1800 M⁻¹ s⁻¹
